Experimental findings from patent publication US20090029392 are described below.

The data set relates to T1, Biotin-GDEVDGC biotinylated peptide substrate for caspase-3, coupled to aminated CLIO.
T1 sequence: GDEVDGC

Caspase 3: the “T2 relaxation time (dispersal of the aggregate after cleavage of the peptide)” value is listed as “When the inhibitor is not added or capase is added, the aggregate is dispersed resulting in an increase of T2”.
